Test [1] deals with T1, Human IL-17A重组蛋白 (Gly 24-Ala 155, C端6×His) (human, biotinylated in the ELISA of paragraph 251 (Biotin-IL-17A-His)). Put plainly: ELISA: antibody coated at 2 μg/mL, Biotin-IL-17A-His titrated from 10 μg/mL (5-fold, 7 points), HRP-streptavidin. Background: ELISA stands for enzyme-linked immunosorbent assay.
Test [2] concerns the target T1, Human IL-17A重组蛋白 (Gly 24-Ala 155, …). Nature of the test: BLI (ForteBio OCTET R2): IL-17A-His at 5 μg/mL on HIS1K sensor, antibody 50-3.13 nM, 25℃. (In general: Biolayer interferometry detects binding as a change in optical thickness at a sensor tip.)
The target is the same in test [3]. Put plainly: cell-based or functional assay.

T1 sequence (chain, as listed by the source): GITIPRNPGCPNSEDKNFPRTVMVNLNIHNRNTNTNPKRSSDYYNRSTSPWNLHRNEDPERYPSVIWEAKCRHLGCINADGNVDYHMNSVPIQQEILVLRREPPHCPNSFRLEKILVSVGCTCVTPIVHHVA

B1: 单域抗体3-H10 (Fc fusion)
chain: EVQLVESGGGLVQPGGSLRLSCAASGFSIHIYAMGWYRQAPGKQRELVATITRGGVTNNADSVKGRFTISRDNAKNTAYLQMNSLKPEDTAVYYCNAGGTNGGYWGQGTQVTVSS
notes: not shown: human IgG1 Fc of vector pcDNA3.4-hIgG1-Fc
The molecule B1 yielded an EC50 in test [1] of 1.22 µg/mL.

B2: 单域抗体1-C3 (Fc fusion)
chain: DVQLVESGGGLVEPGESLRLSCAAPGEDLGYYAIAWFRQAPGKEREVVSCVTSSGSSTNYLSSVKDRFTISIDNAKNTVYLQMNSLKPEDTAVYYCASTILLCSDYISAFGTWGQGTQVTVAS
notes: as for B1
In test [1], B2 had an EC50 of 5.28 µg/mL.

B3: 串联单域抗体1-C3-3-H10 (VHH-(GGGGS)3-VHH-IgG1 Fc) (Fc fusion)
chain: DVQLVESGGGLVEPGESLRLSCAAPGEDLGYYAIAWFRQAPGKEREVVSCVTSSGSSTNYLSSVKDRFTISIDNAKNTVYLQMNSLKPEDTAVYYCASTILLCSDYISAFGTWGQGTQVTVASGGGGSGGGGSGGGGSEVQLVESGGGLVQPGGSLRLSCAASGFSIHIYAMGWYRQAPGKQRELVATITRGGVTNNADSVKGRFTISRDNAKNTAYLQMNSLKPEDTAVYYCNAGGTNGGYWGQGTQVTVSS
notes: also called C3-H10; C3-H10重组蛋白; not shown: human IgG1 Fc
In the case of B3, the Kd in test [2] amounted to 1320 pM. In addition, in test [3], the “串联单域抗体阻断活性检测 (293F-IL-17RA-IL-17Rc-ACT1-NFκB-Luc报告基因细胞株), IC50” value turned out to be 630 pM. The molecule also showed an EC50 in test [1] of 1.13 µg/mL.

B4: 阳性对照抗体Ixekizumab (antibody, human IgG4 S228P, kappa, V domains shown)
VH: QVQLVQSGAEVKKPGSSVKVSCKASGYSFTDYHIHWVRQAPGQGLEWMGVINPMYGTTDYNQRFKGRVTITADESTSTAYMELSSLRSEDTAVYYCARYDYFTGTGVYWGQGTLVTVSS
VL: DIVMTQTPLSLSVTPGQPASISCRSSRSLVHSRGNTYLHWYLQKPGQSPQLLIYKVSNRFIGVPDRFSGSGSGTDFTLKISRVEAEDVGVYYCSQSTHLPFTFGQGTKLEIKR
notes: also called 阳性抗体; 依奇珠单抗
B4 yielded a Kd in test [2] of 391 pM. Moreover, in test [3], the “串联单域抗体阻断活性检测 (293F-IL-17RA-IL-17Rc-ACT1-NFκB-Luc报告基因细胞株), IC50” value worked out at 2240 pM. Moreover, the midpoint of the response in test [1], the EC50, lay at 10.1 µg/mL.

A word on the EC50: it is the midpoint of the concentration-response curve. Lower therefore signals greater potency. As usually defined, the Kd is a measure of binding affinity in units of concentration. Low readings indicate higher affinity, high ones lower affinity.

The values are drawn from patent publication CN117866903A (BEILAI PHARMACEUTICAL CO LTD, dated 2024).
